Assay results as given in PMC8204306 (ACS Infectious Diseases, 2021).

Columns and labels:
ChsB1 = ChsB1 (Mycobacterium tuberculosis, UniProt O53547)
purified protein [1] = substrate: CC(=CCC[C@@H](C)[C@H]1CC[C@H]2[C@@H]3CCC4=CC(=O)CC[C@]4(C)[C@H]3CC[C@]12C)C(=O)SCCNC(=O)CCNC(=O)[C@H](O)C(C)(C)COP(=O)(O)OP(=O)(O)OC[C@H]1O[C@@H](n2cnc3c(N)ncnc32)[C@H](O)[C@@H]1OP(=O)(O)O; assay: purified protein; conditions: pH 7.4; 25.0 °C
purified protein [2] = substrate: CCCCC/C=C/C(=O)SCCNC(=O)CCNC(=O)[C@H](O)C(C)(C)COP(=O)(O)OP(=O)(O)OC[C@H]1O[C@@H](n2cnc3c(N)ncnc32)[C@H](O)[C@@H]1OP(=O)(O)O; assay: purified protein; conditions: pH 7.4; 25.0 °C
purified protein [3] = substrate: C[C@H](/C=C/C(=O)SCCNC(=O)CCNC(=O)[C@H](O)C(C)(C)COP(=O)(O)OP(=O)(O)OC[C@H]1O[C@@H](n2cnc3c(N)ncnc32)[C@H](O)[C@@H]1OP(=O)(O)O)[C@H]1CC[C@H]2[C@@H]3CCC4=CC(=O)CC[C@]4(C)[C@H]3CC[C@]12C; assay: purified protein; conditions: pH 7.4; 25.0 °C
purified protein [4] = substrate: CCCCC[C@@H](O)CC(=O)SCCNC(=O)CCNC(=O)[C@H](O)C(C)(C)COP(=O)(O)OP(=O)(O)OC[C@H]1O[C@@H](n2cnc3c(N)ncnc32)[C@H](O)[C@@H]1OP(=O)(O)O; assay: purified protein; conditions: pH 8.5; 25.0 °C
purified protein [5] = substrate: C[C@@H]([C@H]1CC[C@H]2[C@@H]3CCC4=CC(=O)CC[C@]4(C)[C@H]3CC[C@]12C)[C@@H](O)CC(=O)SCCNC(=O)CCNC(=O)[C@H](O)C(C)(C)COP(=O)(O)OP(=O)(O)OC[C@H]1O[C@@H](n2cnc3c(N)ncnc32)[C@H](O)[C@@H]1OP(=O)(O)O; assay: purified protein; conditions: pH 8.5; 25.0 °C
purified protein [6] = substrate: C[C@H](C(=O)CC(=O)SCCNC(=O)CCNC(=O)[C@H](O)C(C)(C)COP(=O)(O)OP(=O)(O)OC[C@H]1O[C@@H](n2cnc3c(N)ncnc32)[C@H](O)[C@@H]1OP(=O)(O)O)[C@H]1CC[C@H]2[C@@H]3CCC4=CC(=O)CC[C@]4(C)[C@H]3CC[C@]12C; assay: purified protein; conditions: pH 8.5; 25.0 °C
purified protein [7] = substrate: C[C@]12CC[C@H]3[C@@H](CCC4=CC(=O)CC[C@@]43C)[C@@H]1CC[C@@H]2O; assay: purified protein; conditions: pH 8.5; 25.0 °C
purified protein [8] = substrate: NC(=O)C1=CN([C@@H]2O[C@H](COP(=O)(O)OP(=O)(O)OC[C@H]3O[C@@H](n4cnc5c(N)ncnc54)[C@H](O)[C@@H]3O)[C@@H](O)[C@H]2O)C=CC1; assay: purified protein; conditions: pH 8.5; 25.0 °C; varied: cofactor
purified protein [9] = substrate: NC(=O)c1ccc[n+]([C@@H]2O[C@H](COP(=O)(O)OP(=O)(O)OC[C@H]3O[C@@H](n4cnc5c(N)ncnc54)[C@H](O)[C@@H]3O)[C@@H](O)[C@H]2O)c1; assay: purified protein; conditions: pH 8.5; 25.0 °C; varied: cofactor

## NC(=O)c1ccc[n+]([C@@H]2O[C@H](COP(=O)(O)OP(=O)(O)OC[C@H]3O[C@@H](n4cnc5c(N)ncnc54)[C@H](O)[C@@H]3O)[C@@H](O)[C@H]2O)c1 [NAD^+]
ChsB1
  X-ray co-crystal structure, 2.21 Å: Co-crystallization of NAD^+ and ChsB1 yielded cubic crystals by sitting drop vapor diffusion

B1: ChsH3 (Mycobacterium tuberculosis H37Rv) (protein)
chain: MPIDLDVALGAQLPPVEFSWTSTDVQLYQLGLGAGSDPMNPRELSYLADDTPQVLPTFGNVAATFHLTTPPTVQFPGIDIELSKVLHASERVEVPAPLPPSGSARAVTRFTDIWDKGKAAVICSETTATTPDGLLLWTQKRSIYARGEGGFGGKRGPSGSDVAPERAPDLQVAMPILPQQALLYRLCGDRNPLHSDPEFAAAAGFPRPILHGLCTYGMTCKAIVDALLDSDATAVAGYGARFAGVAYPGETLTVNVWKDGRRLVASVVAPTRDNAVVLSGVELVPA
Purified protein [1]
  Km: 12 ± 6 µM
  kcat/Km: 120000 M⁻¹ s⁻¹
Purified protein [2]
  Km: 112 ± 12 µM
  kcat/Km: 1.5e+06 M⁻¹ s⁻¹
Purified protein [3]
  Km: 55 ± 5 µM
  kcat/Km: 2e+06 M⁻¹ s⁻¹

B2: ChsB1 (Mycobacterium tuberculosis H37Rv) (protein)
chain: MKLTESNRSPRTTNTTDLSGKVAVVTGAAAGLGRAEALGLARLGATVVVNDVASALDASDVVDEIGAAAADAGAKAVAVAGDISQRATADELLASAVGLGGLDIVVNNAGITRDRMLFNMSDEEWDAVIAVHLRGHFLLTRNAAAYWRDKAKDAEGGSVFGRLVNTSSEAGLVGPVGQANYAAAKAGITALTLSAARALGRYGVCANVICPRARTAMTADVFGAAPDVEAGQIDPLSPQHVVSLVQFLASPAAAEVNGQVFIVYGPQVTLVSPPHMERRFSADGTSWDPTELTATLRDYFAGRDPEQSFSATDLMRQ
Purified protein [4]
  Km: 169 ± 21 µM
  kcat/Km: 15000 M⁻¹ s⁻¹
Purified protein [5]
  Km: 5.3 ± 1 µM
  kcat/Km: 1.7e+06 M⁻¹ s⁻¹
Purified protein [6]
  Km: 25 ± 5 µM
  kcat/Km: 64000 M⁻¹ s⁻¹
Purified protein [7]
  Km: 369 ± 75 µM
  kcat/Km: 810 M⁻¹ s⁻¹
Purified protein [8]
  Km: 40 ± 6 µM
Purified protein [9]
  Km: 70 ± 10 µM
